Legend:
Type in all cases: biochemical, Metallosphaera sedula
[1] = substrate: NC(=O)C1=CN([C@@H]2O[C@H](COP(=O)(O)OP(=O)(O)OC[C@H]3O[C@@H](n4cnc5c(N)ncnc54)[C@H](OP(=O)(O)O)[C@@H]3O)[C@@H](O)[C@H]2O)C=CC1; experiment: NADPH consumption, spectrophotometric; conditions: succinyl-CoA as substrate, pH 6.5, 65°C, varied: cofactor
[2] = substrate: CC(C)(COP(=O)(O)OP(=O)(O)OC[C@H]1O[C@@H](n2cnc3c(N)ncnc32)[C@H](O)[C@@H]1OP(=O)(O)O)[C@@H](O)C(=O)NCCC(=O)NCCSC(=O)CCC(=O)O; experiment: NADPH consumption, spectrophotometric; conditions: NADPH 0.5 mM, MgCl2 5 mM, DTT 4 mM, pH 6.5, 65°C
[3] = substrate: O=CCCC(=O)O; experiment: purified protein; conditions: NADPH 0.5 mM, MgCl2 5 mM, DTT 5 mM, pH 6.5, 65°C

B1: MCR, malonyl-CoA/succinyl-CoA reductase (Metallosphaera sedula DSM 5348) (protein)
chain: MRRTLKAAILGATGLVGIEYVRMLADHPYIKPTYLAGKGSVGKPYGEIVRWQTVGNVPKEVANQEVKPTDPKLMDDVDIIFSPLPQGAAGPVEEQFAKLGFNVISNSPDHRFDMDVPMIIPEVNPHTVTLIDEQRKRRDWKGFIVTTPLCTAQGAAIPLTPIYQNFKMSGVMITTMQSLSGAGYPGIASLDIVDNALPLGDGYDAKTVKEITRILSEVKRNVQEPGVNEITLDATTHRIATIHGHYEVAYVTFKEDTDVRKVMESMESFKGEPQDLKLPTAPEKPIIVTTQDARPQVFFDRWAGNPPGMSVVVGRLKQVNPRTIRFVSLIHNTVRGAAGGGVLTAELLVEKGYIDKR
B1 was tested. Which Km [1] did it give?
The Km was 79.2 µM.

What about the Vmax [1] of the same protein?
The Vmax was 13.1 µmol/min/mg.

What about the kcat/Km [1] of the same protein?
Its kcat/Km is 109000 M⁻¹ s⁻¹.

What about the Km [2] of the same protein?
Its Km is 191 µM.

What about the Vmax [2] of the same protein?
The Vmax was 15.9 µmol/min/mg.

What about the kcat/Km [2] of the same protein?
Its kcat/Km is 54500 M⁻¹ s⁻¹.

B2: SSR, succinic semialdehyde reductase (Metallosphaera sedula DSM 5348) (protein)
chain: MKAAVLHTYKEPLSIEDVNISQPKAGEVKIKVKATGLCHSDVNVFEGKTPVPPPVVAGHEISGIVEEVGPGVTRVKPGDRVISAFIHPCGKCGNCVAGKENLCETFSQVRLKGVMPDGTSRLSKDGKEIRTFLGGGFAEYAIVGENALTRVPEDMDLEKVAVLGCAGLTGYGAISSSKIEPGDTVAVIGVGGVGLSTIQLLRASGAGRIIAVGTKKWKLDRAMELGATDVVNSKEIDPVKAIKEITGGGPQVVIEAGGNEDTIHMALDSVRIGGKVVLVGLPPATAMIPIRVASIVRGGIEVVGNYGGRPRVDMPKLLELVRQGRYDPSRLVTGRFRLEEINEAVKMLEEGEAIRSLIIP
What does the source list for B2?
Km [3]: 27 µM; Vmax [3]: 683 µmol/min/mg; kcat/Km [3]: 1.6e+07 M⁻¹ s⁻¹
